{
  "source": "patent US20220073608A1",
  "binders": {"B1": {"name": "2D5-b1-3D9 scFv (periplasmic extract) (scFv, part only; not given: linker, domain order, tags, V domains shown, not shown: another chain or arm of the molecule; large carriers; small tags and cut ends)", "VH": "QVTLRESGPALVKPTQTLTLTCTFSGFSLTTTGVAVTWIRQPPGKALEWLALIDWDDDKYYSTSLKTRLTISKDTSKNQVVLTMTNMDPVDTATYYCARIASGDSGGYFADWGQGTLVTVSS", "VL": "SYELTQPPSVSVSPGQTASITCSGDKLDDKYVYWYQQKPGQSPVLVIYMDNKRKSGIPERFSGSNSGNTATLTISGTQAMDEADYYCQAWESSSDQYVFGTGTKVTVL"}, "B2": {"name": "VX15 (antibody, INN chains, looked up, V domains shown)", "VH": "QVQLVQSGAEVKKPGSSVKVSCKASGYSFSDYYMHWVRQAPGQGLEWMGQINPTTGGASYNQKFKGKATITVDKSTSTAYMELSSLRSEDTAVYYCARYYYGRHFDVWGQGTTVTVSS", "VL": "DIVMTQSPDSLAVSLGERATINCKASQSVDYDGDSYMNWYQQKPGQPPKLLIYAASNLESGVPDRFSGSGSGTDFTLTISSLQAEDVAVYYCQQSNEDPYTFGQGTKLEIK"}},
  "key": {"[1]": {"target": "T1, biotinylated hSEMA4D ECD-His (human) (UniProt Q92854)", "T1 sequence (chain, biotinylated with Biotin-X-X-NHS at a molar ratio of 8,1; sites not stated)": "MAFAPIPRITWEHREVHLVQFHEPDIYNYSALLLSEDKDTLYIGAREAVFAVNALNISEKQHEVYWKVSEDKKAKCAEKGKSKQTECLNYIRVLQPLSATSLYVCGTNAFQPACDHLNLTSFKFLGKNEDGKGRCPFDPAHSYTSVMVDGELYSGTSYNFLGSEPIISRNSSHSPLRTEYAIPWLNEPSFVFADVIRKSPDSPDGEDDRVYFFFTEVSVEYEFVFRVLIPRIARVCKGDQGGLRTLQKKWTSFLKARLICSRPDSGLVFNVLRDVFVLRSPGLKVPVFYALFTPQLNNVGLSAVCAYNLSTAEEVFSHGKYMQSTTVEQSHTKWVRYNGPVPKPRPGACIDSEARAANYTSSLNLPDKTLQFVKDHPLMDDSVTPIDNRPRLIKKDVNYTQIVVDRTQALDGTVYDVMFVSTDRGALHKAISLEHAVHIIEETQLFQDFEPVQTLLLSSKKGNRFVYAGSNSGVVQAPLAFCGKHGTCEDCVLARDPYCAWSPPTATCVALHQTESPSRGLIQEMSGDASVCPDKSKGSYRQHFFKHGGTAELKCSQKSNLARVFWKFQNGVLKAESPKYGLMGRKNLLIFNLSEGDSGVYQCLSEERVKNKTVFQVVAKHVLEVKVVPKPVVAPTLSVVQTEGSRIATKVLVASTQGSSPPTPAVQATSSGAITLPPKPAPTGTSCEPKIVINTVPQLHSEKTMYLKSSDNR", "assay": "BLI (Octet-Red), scFv in bacterial periplasmic extract; off-rate ranking"}, "[2]": {"target": "T2, human SEMA4D, full length, on CHO-K1 cells (CHO-K1 hSEMA4D) (human) (UniProt Q92854)", "T2 sequence (looked up)": "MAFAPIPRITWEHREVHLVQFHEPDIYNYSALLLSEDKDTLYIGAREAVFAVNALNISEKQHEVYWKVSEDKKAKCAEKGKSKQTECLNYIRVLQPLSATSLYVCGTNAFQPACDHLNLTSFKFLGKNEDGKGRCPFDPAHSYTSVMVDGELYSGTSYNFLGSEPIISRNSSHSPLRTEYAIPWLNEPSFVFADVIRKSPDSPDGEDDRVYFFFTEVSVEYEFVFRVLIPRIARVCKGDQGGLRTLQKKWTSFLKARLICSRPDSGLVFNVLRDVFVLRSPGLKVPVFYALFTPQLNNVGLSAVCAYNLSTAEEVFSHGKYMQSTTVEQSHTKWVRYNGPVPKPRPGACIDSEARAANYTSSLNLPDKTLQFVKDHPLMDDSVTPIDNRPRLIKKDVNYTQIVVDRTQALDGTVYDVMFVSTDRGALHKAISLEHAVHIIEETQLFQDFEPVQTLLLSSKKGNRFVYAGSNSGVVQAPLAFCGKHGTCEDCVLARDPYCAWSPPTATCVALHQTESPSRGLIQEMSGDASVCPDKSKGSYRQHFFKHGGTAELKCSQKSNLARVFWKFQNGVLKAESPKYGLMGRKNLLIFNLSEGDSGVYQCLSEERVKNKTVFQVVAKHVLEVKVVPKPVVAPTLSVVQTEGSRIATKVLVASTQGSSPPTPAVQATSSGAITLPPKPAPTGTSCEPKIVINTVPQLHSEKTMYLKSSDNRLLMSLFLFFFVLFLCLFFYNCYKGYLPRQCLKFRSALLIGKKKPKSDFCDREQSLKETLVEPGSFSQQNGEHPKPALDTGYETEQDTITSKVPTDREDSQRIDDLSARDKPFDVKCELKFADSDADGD", "assay": "competitive FACS, CHO-K1 hSEMA4D cells; unlabelled Ab 6 ug/mL first, competitor Alexa 488-5D8 0.67 ug/mL"}, "[3]": {"target": "T2, human SEMA4D, full length, on CHO-K1 cells (CHO-K1 hSEMA4D) (human)", "assay": "competitive FACS, CHO-K1 hSEMA4D cells; unlabelled Ab 6 ug/mL first, competitor Alexa 488-VX15 0.67 ug/mL"}, "[4]": {"target": "T2, human SEMA4D, full length, on CHO-K1 cells (CHO-K1 hSEMA4D) (human)", "assay": "competitive FACS, CHO-K1 hSEMA4D cells; unlabelled Ab 6 ug/mL first, competitor Alexa 488-2D5 0.67 ug/mL"}},
  "data": [
    {"binder": "B1", "values": [
      {"measurement": "fold reduction of off-rate against the wild type", "setting": "[1]", "value": 45, "unit": "times"}
    ]},
    {"binder": "B2", "values": [
      {"measurement": "inhibition rate (%)", "setting": "[2]", "value": 98, "unit": "%"},
      {"measurement": "inhibition rate (%)", "setting": "[3]", "value": 97, "unit": "%"},
      {"measurement": "inhibition rate (%)", "setting": "[4]", "value": 96, "unit": "%"}
    ]}
  ]
}
